Assays:
NFAT [1] = test: Gal-3BP-induced IL-2 secretion with or without NFAT inhibitors (ELISA); format: cell-based, human; settings: Gal-3BP 10 μg/ml for the times indicated; FIG. 6A
Method: (§1) Measurement of cytokines was carried out with Ready set Go ELISA kits (eBioscience).
To determine if NFAT is required for Gal-3BP-induced IL-2 secretion, human blood monocytes were incubated with M-CSF (100 ng/ml) for 6 days to produce monocyte-derived macrophages (M0). […] Macrophages were alternatively treated with Gal-3BP (10 μg/ml) in the absence or presence of CSA (1 μM) or FK506 (1 μM), another known NFAT inhibitor (FIG. 6B). […] (P values are ***0.0004, **0.006 and *0.034)

NFAT [2] = test: NFAT translocation to nucleus, immunofluorescence microscopy; format: cell-based, human; settings: Gal-3BP 10 μg/ml for 2 hours; M0 macrophages; FIG. 5
Method: Cells were fixed in formaldehyde 4%, 10-20 min, room temperature. Cells were then permeabilized in chilled methanol, 5-10 min, and −20° C. in and washed extensively with PBS, then blocked using 5% donkey serum in PBS. Primary antibody (Rabbit anti-NFATc2/NFATp (1:50, ImmunoGlobe), diluted in PBS with goat serum 10%) was applied over night in 4° C. Biotin anti-rabbit antibodies (1:200 Molecular Probes) were incubated for 1 hour. Streptavidin, (Alexa Fluor® 594 conjugate*2 mg/mL*Cat. No. S-32356) detection 1:1000 for 1 hour. DAPI (1:1,000, Sigma Aldrich) for 5 min at room temperature.
These macrophages were then incubated with Gal-3BP (10 μg/ml for 2 hours). Both samples were stained with DAPI (nuclear stain) and an antibody to NFAT (anti-NFAT c2/p IG 209, affinity purified rabbit antibody, ImmunoGlobe). Nuclear translocation was assessed by immunofluorescence microscopy (FIG. 5).

[3] = system: microRNAs known to be transcriptional targets of NFAT; test: microRNA expression in M0 macrophages after Gal-3BP (miRCURY LNA Array); format: cell-based; settings: Gal-3BP 10 ug/ml; human M0 macrophages; fold-change screen; FIG. 7
Method: The targets of NFAT signaling are largely cytokines, growth factors and their receptors, proteins involved in cell-cell interactions, as well as microRNAs (Crabtree and Schreiber, Cell, 138: 210 (2009)). To evaluate Gal-3BP's ability to induce NFAT signaling, microRNA expression in human M0 macrophages following Gal-3BP treatment was measured.
Human M0 macrophages were challenged with Gal-3BP (10 ug/ml), small RNAs were isolated and screened for microRNA expression using miRCURY™ Power Labeling Kit and hybridized on the miRCURY™ LNA Array (v.11.0). The samples were hybridized using a hybridization station and scanned using the Axon GenePix 4000B microarray scanner. GenePix pro V6.0 is used to extract the raw intensity of the image. Differentially expressed microRNAs were identified through fold-change screen. […] These microRNAs reflect increased NFAT activity via Gal-3BP.

[4] = system: intracellular free Ca^2+ in human M0 macrophages; test: Ca2+ mobilization in M0 macrophages, fluo-4 fluorescence microscopy; format: cell-based; settings: Gal-3BP 10 ug/ml; M0 macrophages loaded with 1 μM fluo-4; FIG. 4
Method: Human blood monocytes were cultured as described in Example 2 to produce MO macrophages, incubated with 1 μM fluo-4 for 30 minutes to quantify intracellular free Ca^2+ concentrations, and then triggered with Gal-3BP (10 ug/ml) with or without the PLC-γ inhibitor U73122 (10 nM). Thapsigargin (100 nM) served as positive control. Ca^2+ mobilization was assayed by fluorescence microscopy as previously described (Zanoni et al., Nature 460:264 (2009)). Each line is a measurement from a single cell (FIG. 4).

human macrophages = test: Gal-3BP-induced IL-2 secretion in monocyte-derived macrophages (ELISA); format: cell-based
Method: (§2) Monocytes were isolated from peripheral blood of human healthy donors. Monocyte purity as assessed by flow cytometry for CD14 (clone HCD14, BioLegend, San Diego, Calif.) was routinely >97%. Monocytes were cultured for six days with M-CSF (100 ng/ml, Peprotech, Rocky Hill, N.J.) in macrophage serum-free medium (Gibco, Carlsbad, Calif.) supplemented with nutridoma SP (Roche, Nutley, N.J.), and penicillin/streptomycin (Sigma Aldrich).
as §1
(§3) Human blood monocytes were incubated with M-CSF (100 ng/ml) for 6 days to produce monocyte-derived macrophages (MO). These macrophages were incubated with interferon-γ (250 u/ml) for 1 day to produce M1 macrophages or with IL-4 (20 units/ml) to produce M2 macrophages or with PGE-2 (1 μM) to produce Mreg macrophages and then challenged with LPS (10 ng/ml) for another day or with Gal-3BP (10 μg/ml over 48 h).
Human blood monocytes were cultured as in (A) (*P=0.05, ***P<0.0001). These macrophages were incubated with Gal-3BP (0.1,1 and 10 μug/ml) for 6 hours and IL-2 was measured by ELISA. […] Human blood monocytes were cultured as in (A). These macrophages were incubated with Gal-3BP (10 μg/ml) or LPS (10 ng/ml) for 6 hours (***P<0.0001).

[5] = system: human monocyte-derived macrophages (M0); test: Macrophage phenotype: IL-10, IL-2, IL-12 and IL-6 production (ELISA); format: cell-based; settings: Gal-3BP 10 μg/ml over 48 h
Method: as §2, §1
as §3, with “(M0).” for “(MO).”, “units/ml)” for “u/ml)”, “h). […] P values are indicated on the graphs.” for “h).”

B1: Gal-3BP: Galectin-3 binding protein, a secreted 585 (murine 577) amino acid protein; human sequence SEQ ID NO:1 (protein, listed as Homo sapiens)
chain: MTPPRLFWVWLLVAGTQGVNDGDMRLADGGATNQGRVEIFYRGQWGTVCDNLWDLTDASVVCRALGFENATQALGRAAFGQGSGPIMLDEVQCTGTEASLADCKSLGWLKSNCRHERDAGVVCTNETRSTHTLDLSRELSEALGQIFDSQRGCDLSISVNVQGEDALGFCGHTVILTANLEAQALWKEPGSNVTMSVDAECVPMVRDLLRYFYSRRIDITLSSVKCFHKLASAYGARQLQGYCASLFAILLPQDPSFQMPLDLYAYAVATGDALLEKLCLQFLAWNFEALTQAEAWPSVPTDLLQLLLPRSDLAVPSELALLKAVDTWSWGERASHEEVEGLVEKIRFPMMLPEELFELQFNLSLYWSHEALFQKKTLQALEFHTVPFQLLARYKGLNLTEDTYKPRIYTSPTWSAFVTDSSWSARKSQLVYQSRRGPLVKYSSDYFQAPSDYRYYPYQSFQTPQHPSFLFQDKRVSWSLVYLPTIQSCWNYGFSCSSDELPVLGLTKSGGSDRTIAYENKALMLCEGLFVADVTDFEGWKAAIPSALDTNSSKSTSSFPCPAGHFNGFRTVIRPFYLTNSSGVD
B1 was tested, and the “IL-2 secretion over time” value (NFAT [1]) was “induced secretion of IL-2”, the “NFAT translocation to nucleus” value (NFAT [2]) was “induces NFAT translocation to nucleus” and the “Number of eight NFAT-target microRNAs significantly up-regulated” value [3] was “five were significantly up-regulated”. For the same molecule, the “Ca^2+ mobilization” value [4] was “triggers Ca^2+ mobilization”, the IL-2 production (human macrophages; Gal-3BP 10 μg/ml or LPS 10 ng/ml for 6 hours, FIG. 1C, P<0.0001) was “induces IL-2 production” and the IL-2 production (human macrophages; Gal-3BP 10 μg/ml over 48 h, standard ELISA, FIG. 1A, P=0.0003) was “induced production of IL-2”. For the same molecule, the “IL-2 production, concentration dependence” value (human macrophages; Gal-3BP 0.1, 1 and 10 μg/ml for 6 hours, ELISA, FIG. 1B) was “concentration dependently induces IL-2 production”, the IL-10 production ([5]; FIG. 2A) was “moderate IL-10” and the IL-2 production ([5]; FIG. 2B) was “production of IL-2”. The IL-12 production ([5]; FIG. 2C) was “no IL-12” and the IL-6 production ([5]; FIG. 2D) was “little IL-6”.
